Molecular target: T1, KaiC_(S431E,T432E) (Synechococcus elongatus (PCC 7942), UniProt Q79PF4 1-519, S431E | T432E)
T1 sequence (looked up): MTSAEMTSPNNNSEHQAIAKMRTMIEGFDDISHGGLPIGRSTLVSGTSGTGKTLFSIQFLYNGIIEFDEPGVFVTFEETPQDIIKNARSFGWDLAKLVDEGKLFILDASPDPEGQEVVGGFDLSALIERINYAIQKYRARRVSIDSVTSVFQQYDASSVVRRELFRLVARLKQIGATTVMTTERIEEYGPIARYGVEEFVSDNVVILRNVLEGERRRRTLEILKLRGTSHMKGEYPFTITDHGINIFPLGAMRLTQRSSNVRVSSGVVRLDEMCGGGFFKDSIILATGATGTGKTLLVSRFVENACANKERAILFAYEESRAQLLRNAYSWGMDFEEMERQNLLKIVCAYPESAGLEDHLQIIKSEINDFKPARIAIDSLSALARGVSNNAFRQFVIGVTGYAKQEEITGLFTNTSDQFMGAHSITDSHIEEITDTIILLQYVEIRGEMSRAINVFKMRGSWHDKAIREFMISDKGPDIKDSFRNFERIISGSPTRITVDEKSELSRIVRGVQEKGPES
Test: fluorescence polarisation

B1: WT-KaiB (natural protein, Synechococcus elongatus (PCC 7942), UniProt Q79PF5 1-102, looked up)
chain: MSPRKTYILKLYVAGNTPNSVRALKTLKNILEVEFQGVYALKVIDVLKNPQLAEEDKILATPTLAKVLPLPVRRIIGDLSDREKVLIGLDLLYGELQDSDDF
binding result: binds

From publication PMC7346098 (Biochemistry, 2020)
